The record followed here is the Immune Epitope Database (IEDB).

Some targets named below: HLA-A*02:03; HLA-A*02:06; HLA-A*02:02; HLA-A*68:02; HLA-A*02:01.
Holding throughout (experiment): IEDB peptide-MHC binding, purified MHC/competitive/radioactivity; ≥ and ≤ were set here for values at or beyond the usual limits of such assays
Where [1] appears, read: source organism: Hepacivirus hominis.
Where [2] appears, read: source organism: Vaccinia virus WR.
Setting [3] is: source organism: Mammarenavirus lassaense.

Regarding VLMTHFFSVL, the IC50 with HLA-A*02:03 (setting [1]) was 21 nM; in the experiment with HLA-A*02:06 (setting [1]), 112 nM; with HLA-A*02:02 (setting [1]), 62 nM; with HLA-A*68:02 (setting [1]), 4690 nM; with HLA-A*02:01 (setting [1]) it was 114 nM.
In the case of MLTNAISSRV, the IC50 with HLA-A*02:03 (setting [2]) amounted to 0.11 nM; in the experiment with HLA-A*02:06 (setting [2]), 224 nM; with HLA-A*02:02 (setting [2]), 53 nM; with HLA-A*68:02 (setting [2]), 101 nM; in the experiment with HLA-A*02:01 (setting [2]), 208 nM.
For the sequence KLMGHFSWWT, the concentration for half-maximal inhibition (IC50) with HLA-A*02:03 (source organism: SARS-CoV1) was found to be 213 nM; with HLA-A*02:06 (source organism: SARS-CoV1) it was 99 nM; in the experiment with HLA-A*02:02 (source organism: SARS-CoV1), 64 nM; with HLA-A*68:02 (source organism: SARS-CoV1) it was 2080 nM; with HLA-A*02:01 (source organism: SARS-CoV1), 6.4 nM.
On to LLFLVLIML, for which the IC50 with HLA-A*02:03 (source organism: SARS-CoV1) is 1370 nM; with HLA-A*02:06 (source organism: SARS-CoV1) it was 573 nM; with HLA-A*02:02 (source organism: SARS-CoV1), 154 nM; in the experiment with HLA-A*68:02 (source organism: SARS-CoV1), 1250 nM; in the experiment with HLA-A*02:01 (source organism: SARS-CoV1), 294 nM.
For LIVAALVFL, in that order: 136 nM, 11 nM, 9.4 nM, 302 nM and 18 nM.
For TLGVYDYLV the same measures were 936 nM, 75 nM, 0.25 nM, 157 nM and 2.7 nM.
For ITAIYVFCI, in that order: 89 nM, 132 nM, 29 nM, 272 nM and 127 nM.
In the case of MLLTFLTSL, the half-maximal inhibitory concentration (IC50) amounted to 4.8 nM with HLA-A*02:03 (source organism: SARS-CoV1); 3.6 nM with HLA-A*02:06 (source organism: SARS-CoV1); 6.2 nM with HLA-A*02:02 (source organism: SARS-CoV1); 923 nM with HLA-A*68:02 (source organism: SARS-CoV1); 1.6 nM with HLA-A*02:01 (source organism: SARS-CoV1).
As to IMFMLIFNV, the half-maximal inhibitory concentration (IC50) with HLA-A*02:03 (setting [2]) came out at 10 nM; with HLA-A*02:06 (setting [2]) it was 13 nM; with HLA-A*02:02 (setting [2]) it was 0.15 nM; with HLA-A*68:02 (setting [2]) it was 13 nM; with HLA-A*02:01 (setting [2]), 12 nM.
KVEKYLPEV: the IC50 in the experiment with HLA-A*02:03 (setting [2]) was determined as 171 nM; in the experiment with HLA-A*02:06 (setting [2]) it was 116 nM; in the experiment with HLA-A*02:02 (setting [2]), 1050 nM; with HLA-A*68:02 (setting [2]), 1520 nM; with HLA-A*02:01 (setting [2]), 17 nM.
In the case of SMGNTLTCYV, the IC50 with HLA-A*02:03 (setting [1]) turned out to be 39 nM; with HLA-A*02:06 (setting [1]), 205 nM; with HLA-A*02:02 (setting [1]), 44 nM; in the experiment with HLA-A*68:02 (setting [1]), 2430 nM; with HLA-A*02:01 (setting [1]), 100 nM.
GLSSGFYFEI: the IC50 turned out to be 782 nM in the experiment with HLA-A*02:03 (setting [2]); 1740 nM with HLA-A*02:06 (setting [2]); 48 nM with HLA-A*02:02 (setting [2]); 1720 nM with HLA-A*68:02 (setting [2]); 176 nM in the experiment with HLA-A*02:01 (setting [2]).
For IVCIVAAVII, in that order: 1590 nM, 3550 nM, 1460 nM, 2980 nM and 1960 nM.
For PTSETMYLTM, in that order: 191 nM, 915 nM, 862 nM, 4210 nM and 529 nM.
As for SIINHKFCNL, the half-maximal inhibitory concentration (IC50) in the experiment with HLA-A*02:03 (setting [3]) is 562 nM; with HLA-A*02:06 (setting [3]), 1020 nM; in the experiment with HLA-A*02:02 (setting [3]), 247 nM; with HLA-A*68:02 (setting [3]) it was 920 nM; with HLA-A*02:01 (setting [3]) it was 2120 nM.
Regarding NVLAWLYAA, the half-inhibitory concentration (IC50) came to 15 nM with HLA-A*02:03 (source organism: SARS-CoV1); 1.6 nM with HLA-A*02:06 (source organism: SARS-CoV1); 7.3 nM with HLA-A*02:02 (source organism: SARS-CoV1); 39 nM in the experiment with HLA-A*68:02 (source organism: SARS-CoV1); 9.2 nM with HLA-A*02:01 (source organism: SARS-CoV1).
In the case of SLVITYCLVT, the IC50 with HLA-A*02:03 (setting [2]) is 566 nM; in the experiment with HLA-A*02:06 (setting [2]) it was 824 nM; with HLA-A*02:02 (setting [2]), 286 nM; with HLA-A*68:02 (setting [2]) it was 447 nM; with HLA-A*02:01 (setting [2]), 373 nM.
For MVDVSMMSM the same measures were 1160 nM, 101 nM, 559 nM, 519 nM and 200 nM.
As for GLMWLSYFV, the half-inhibitory concentration (IC50) amounted to 0.82 nM with HLA-A*02:03 (source organism: SARS-CoV1); 0.97 nM with HLA-A*02:06 (source organism: SARS-CoV1); 0.2 nM with HLA-A*02:02 (source organism: SARS-CoV1); 44 nM with HLA-A*68:02 (source organism: SARS-CoV1); 0.71 nM with HLA-A*02:01 (source organism: SARS-CoV1).
Take TIDNIVTSL: the IC50 was determined as 1040 nM with HLA-A*02:03 (setting [2]); 2730 nM with HLA-A*02:06 (setting [2]); 178 nM in the experiment with HLA-A*02:02 (setting [2]); 1860 nM with HLA-A*68:02 (setting [2]); 2670 nM with HLA-A*02:01 (setting [2]).
For KLFTHDIML, in that order: 3 nM, 4.7 nM, 1 nM, 769 nM and 1.4 nM.
For SVIFYFISI the same measures were 75 nM, 0.17 nM, 155 nM, 1.7 nM and 79 nM.
For IMTSTRTIIL, the IC50 with HLA-A*02:03 (setting [2]) came out at 52 nM; in the experiment with HLA-A*02:06 (setting [2]), 438 nM; in the experiment with HLA-A*02:02 (setting [2]) it was 1020 nM; with HLA-A*68:02 (setting [2]) it was 91 nM; with HLA-A*02:01 (setting [2]), 540 nM.
